The results in this text go back to patent EP0488317A2.

The target in the test is Bovine thrombin (bovine) (UniProt P00735). The test is described as follows: cell-based or functional assay.

For r-UTM (from UniProt P07204 19-486), the Coagulation time, substance 17 nM, bovine fibrinogen 1 mg/ml, bovine thrombin 18 nM; control 28.1 sec came out at 29.6 s; the IC50 of inhibition of coagulation of bovine fibrinogen (1 mg/ml) by bovine thrombin (18 nM) was found to be 80 nM; the clotting time, human fibrinogen 2.5 mg/ml, bovine thrombin 0.5 U/ml, ATIII (+) (human antithrombin III 250 ug/ml); control 49.5 sec stood at 80.8 s; the clotting time, human fibrinogen 2.5 mg/ml, bovine thrombin 0.5 U/ml, ATIII (-); control 43.3 sec came to 61.8 s.
